Substrate in data set [1]: N#Cc1cccnc1
As to the kind of experiment: purified protein. The settings on record: 0.05 M potassium phosphate pH 6.5, 10 nM enzyme, 0.05-0.75 M substrate.

Substrate in data set [2]: N#Cc1cn([C@@H]2O[C@H](CO)[C@@H](O)[C@H]2O)c2ncnc(N)c12
As to the kind of experiment: purified protein. The settings on record: 0.05 M potassium phosphate pH 6.5, 10 nM enzyme, 0.1-2.5 mM substrate.

Drawing on article PMC4075990, this text covers Km, kcat and kcat/Km for one protein.

In general, Km refers to the concentration of substrate that gives half-maximal velocity. Usually kcat stands for the maximal rate divided by the concentration of active sites. For orientation: kcat/Km means the second-order rate constant that governs catalysis at low substrate concentration.

B1: ToyJKL (toyocamycin nitrile hydratase, TNHase) (Streptomyces rimosus) (protein)
chain 1: MSTEHVSLPIAARVRRLEERVIAAGLVTDEQLDTILEHNLSRATPFNGARLVARAWTSPDFRDLLLGEPAAALREMGLDGLLADDEHLRVVANTPTVHNVVVCTLCSCYPVLLLGPSPSWYKSDAYRARVVREPRAVLAEFGTVLPAEVDVRVWDASAEARYMVLPRRPAGTEGLDEEGLAARVTRAGLIGTAPV
chain 2: MGERRFSVGDPVRVRPADPPHHTRVPRYVRGHLGHVVTVQPPCPLPDDVARRRDPFRVLPVYTVRFAARDLWGSGTHLVLIDLWECYLEPAAETARGLGGETS
chain 3: MARLNDIGGTFGYGSIPMDGAEPPHPWRHDWEARVFAVLIGLAMAGVWTASELRDAEERVPPNDYLAASYYERVLMGMELLLDEKGIPSRG
On to B1, for which, in the data set “purified protein [1]”, the Michaelis-Menten constant (Km) came to 99 ± 2 mM, the kcat turned out to be 79 ± 5 s⁻¹ and the kcat/Km was 800 M⁻¹ s⁻¹. Besides, in the data set “purified protein [2]”, the Michaelis constant (Km) was 2.8 × 10^–2 ± 1 × 10^–3 mM, the turnover number (kcat) was 159 ± 2 s⁻¹ and the kcat/Km was found to be 5.7e+06 M⁻¹ s⁻¹.
